According to patent publication US20090149389A1 (PURDUE RESEARCH FOUNDATION, published 2009):

Columns and labels:
Experiment in all cases: cell-based or functional assay
Aurora-A (h) = target: T1, Aurora-A (h) (human (h), UniProt O14965 1-403)
T1 sequence (looked up): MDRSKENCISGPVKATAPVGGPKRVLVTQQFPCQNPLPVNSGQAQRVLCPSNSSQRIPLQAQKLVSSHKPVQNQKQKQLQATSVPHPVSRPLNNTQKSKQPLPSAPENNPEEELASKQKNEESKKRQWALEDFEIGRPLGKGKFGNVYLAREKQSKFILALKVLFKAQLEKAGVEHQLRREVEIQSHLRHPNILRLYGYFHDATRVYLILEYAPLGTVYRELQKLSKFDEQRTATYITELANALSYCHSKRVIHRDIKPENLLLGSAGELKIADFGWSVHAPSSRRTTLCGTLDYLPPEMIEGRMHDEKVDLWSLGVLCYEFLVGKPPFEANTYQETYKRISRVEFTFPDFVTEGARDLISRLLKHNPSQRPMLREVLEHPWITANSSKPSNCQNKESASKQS

CHK1 (h) = target: T2, CHK1 (h) (human (h), UniProt O14757 1-476)
T2 sequence (looked up): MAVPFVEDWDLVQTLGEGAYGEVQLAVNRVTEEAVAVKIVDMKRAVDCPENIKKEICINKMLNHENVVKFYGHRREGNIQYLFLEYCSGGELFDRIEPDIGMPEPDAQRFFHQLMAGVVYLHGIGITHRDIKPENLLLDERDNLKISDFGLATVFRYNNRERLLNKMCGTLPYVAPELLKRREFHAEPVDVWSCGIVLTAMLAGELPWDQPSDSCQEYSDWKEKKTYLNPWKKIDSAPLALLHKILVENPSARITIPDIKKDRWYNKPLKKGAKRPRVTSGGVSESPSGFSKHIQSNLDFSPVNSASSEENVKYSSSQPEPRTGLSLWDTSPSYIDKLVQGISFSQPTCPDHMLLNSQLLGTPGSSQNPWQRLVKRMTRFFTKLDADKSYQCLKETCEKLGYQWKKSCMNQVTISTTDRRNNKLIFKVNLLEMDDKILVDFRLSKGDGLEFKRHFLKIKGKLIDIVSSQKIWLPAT

DYRK2 (h) = target: T3, DYRK2 (h) (human (h), UniProt Q92630 1-601, limits assumed)
T3 sequence (looked up): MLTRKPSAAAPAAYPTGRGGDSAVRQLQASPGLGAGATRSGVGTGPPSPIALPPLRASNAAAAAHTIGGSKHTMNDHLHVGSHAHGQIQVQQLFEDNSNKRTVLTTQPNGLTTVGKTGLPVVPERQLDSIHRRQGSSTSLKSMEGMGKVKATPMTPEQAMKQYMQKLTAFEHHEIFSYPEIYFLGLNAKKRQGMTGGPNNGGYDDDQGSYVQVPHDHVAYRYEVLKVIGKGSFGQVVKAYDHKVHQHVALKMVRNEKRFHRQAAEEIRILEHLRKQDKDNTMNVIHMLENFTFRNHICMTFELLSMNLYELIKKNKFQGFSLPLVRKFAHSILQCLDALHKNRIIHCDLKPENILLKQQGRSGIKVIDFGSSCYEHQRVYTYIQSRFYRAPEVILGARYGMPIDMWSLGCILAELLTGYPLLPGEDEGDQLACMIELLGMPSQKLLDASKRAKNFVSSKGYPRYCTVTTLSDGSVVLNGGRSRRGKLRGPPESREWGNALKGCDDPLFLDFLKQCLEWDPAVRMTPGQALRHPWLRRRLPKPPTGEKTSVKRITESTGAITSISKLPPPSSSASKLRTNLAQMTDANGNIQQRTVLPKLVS

PhKγ2 (h) = target: T4, PhKγ2 (h) (human (h), UniProt P15735 1-406)
T4 sequence (looked up): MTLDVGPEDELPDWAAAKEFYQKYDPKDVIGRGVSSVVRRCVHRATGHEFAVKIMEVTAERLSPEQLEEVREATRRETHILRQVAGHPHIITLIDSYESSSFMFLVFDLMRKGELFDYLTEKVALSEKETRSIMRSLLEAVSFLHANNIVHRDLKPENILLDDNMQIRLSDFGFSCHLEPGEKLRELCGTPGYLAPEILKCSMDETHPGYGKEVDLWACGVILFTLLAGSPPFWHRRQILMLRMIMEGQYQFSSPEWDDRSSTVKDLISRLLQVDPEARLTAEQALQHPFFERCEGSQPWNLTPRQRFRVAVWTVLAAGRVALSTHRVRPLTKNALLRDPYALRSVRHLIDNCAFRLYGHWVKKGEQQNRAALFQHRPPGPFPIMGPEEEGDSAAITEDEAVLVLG

PKG1β (h) = target: T5, PKG1β (h) (human (h), UniProt Q13976-2 1-686)
T5 sequence (looked up): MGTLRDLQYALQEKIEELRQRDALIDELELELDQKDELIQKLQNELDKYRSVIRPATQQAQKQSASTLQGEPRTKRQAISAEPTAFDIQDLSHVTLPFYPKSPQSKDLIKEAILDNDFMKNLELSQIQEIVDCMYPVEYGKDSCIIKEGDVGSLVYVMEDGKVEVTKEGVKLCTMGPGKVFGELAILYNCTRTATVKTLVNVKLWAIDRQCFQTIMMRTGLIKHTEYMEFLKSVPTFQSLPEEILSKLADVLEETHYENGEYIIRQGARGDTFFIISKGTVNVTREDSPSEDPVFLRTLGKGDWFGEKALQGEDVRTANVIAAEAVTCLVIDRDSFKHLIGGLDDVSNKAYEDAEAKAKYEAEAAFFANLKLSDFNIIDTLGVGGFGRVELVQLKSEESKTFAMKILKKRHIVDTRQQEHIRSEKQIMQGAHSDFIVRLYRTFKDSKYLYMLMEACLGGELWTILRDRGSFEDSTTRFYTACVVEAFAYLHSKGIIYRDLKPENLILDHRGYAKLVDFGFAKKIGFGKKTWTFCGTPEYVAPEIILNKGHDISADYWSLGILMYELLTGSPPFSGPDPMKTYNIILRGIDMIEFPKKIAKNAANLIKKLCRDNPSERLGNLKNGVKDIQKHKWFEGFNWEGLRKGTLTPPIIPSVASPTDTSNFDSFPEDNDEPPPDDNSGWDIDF

Src(1-530) (h) = Src(1-530) (h) (human (h), UniProt P12931 1-530)

For KAFAKLAARLYRKALARQLGVAA, the “Profile-1 @ = 100 µm (kinase profiler assay)” value (“Profile-1 @ = 100 µm” below) (Aurora-A (h)) was 60, the “Profile-1 @ = 100 µm” value (CHK1 (h)) was 68 and the “Profile-1 @ = 100 µm” value (DYRK2 (h)) was -10. For the same binder, the “Profile-1 @ = 100 µm” value (PhKγ2 (h)) was 27, the “Profile-1 @ = 100 µm” value (PKG1β (h)) was 24 and the “Profile-1 @ = 100 µm” value (Src(1-530) (h)) was 3.
